The target in test [1] is T1, full length human SIRPA expressed on transiently transfected Hek293T cells (pMET7 FLAG-hSIRPA) (human, UniProt P78324 31-504).
T1 construct: whole, on cells; also called human SIRP1α; human SIRPα
The test is described as follows: FACS, serial dilution of purified VHH on hSIRPA- or empty vector (MOCK)-transfected Hek293T cells; FITC-coupled anti-HA antibody. On the procedure: Expression-vectors (pMECS) encoding the 27 putative human SIRPA binding VHHs were transformed to WK6 cells. VHHs (with a C-terminal HA and His-tag) were expressed in periplasmic extracts upon IPTG overnight stimulation and purified from the periplasmic extracts using the HisPur Cobalt Spin Plates (ThermoFisher) according to the manufacturer's guidelines. Purified VHHs were applied in a FACS binding-assay at 1 μg/ml: Hek293T cells were transiently transfected with a full length human SIRPA plasmid (pMET7 FLAG-hSIRPA) or an empty vector (MOCK). Two days after transfection, cells were resuspended and incubated with purified VHH in FACS buffer (PBS+0.5 mM EDTA+3% FBS). VHH binding was detected using a FITC-coupled anti-HA Ab (Genscript). Samples were acquired with a MACSQuant X instrument (Miltenyi Biotec) and analyzed using the FlowLogic software (Miltenyi Biotec).
Based on this initial binding-experiment and on the comparison of the 27 sequences, 5 VHHs (4 members of sequence group 1 which encompasses 26 sequences and 2HSI22 which is a unique representative of sequence group 2) were studied in more detail for binding to human SIRPA. Binding in FACS was measured as described above. In brief, hSIRPA or empty vector (MOCK) transfected cells were incubated with a serial dilution of purified VHH and binding detected using a FITC-coupled anti-HA Ab (GenScript). Data are summarized in FIG. 7 and illustrate concentration dependent specific binding to hSIRPA for all 5 VHHs.
A general note: A flow cytometer gives signals particle by particle.

The target of test [2] is T2, His6-tagged recombinant extracellular domain of human signal regulatory protein alpha (hSIRP1α) (human, UniProt P78324 31-373).
T2 construct: extracellular domain; also called antigen; not shown: His6 tag
T2 sequence (P78324 31-373): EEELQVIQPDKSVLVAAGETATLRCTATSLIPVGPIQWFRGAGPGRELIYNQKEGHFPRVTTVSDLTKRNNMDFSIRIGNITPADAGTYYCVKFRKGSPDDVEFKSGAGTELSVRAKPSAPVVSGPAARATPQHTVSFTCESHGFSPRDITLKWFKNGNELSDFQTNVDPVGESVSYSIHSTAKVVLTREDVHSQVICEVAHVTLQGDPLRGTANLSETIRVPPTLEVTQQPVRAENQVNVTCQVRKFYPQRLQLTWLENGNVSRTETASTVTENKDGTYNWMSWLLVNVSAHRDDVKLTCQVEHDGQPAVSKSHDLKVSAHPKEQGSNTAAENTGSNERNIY
The test can be described thus: ELISA, crude periplasmic extracts on coated His6-tagged hSIRP1α extracellular domain. On the procedure: The VHH library was panned on solid-phase coated antigen (200 μg/ml in 100 mM NaHCO₃, pH 9.3) for 3 rounds. The enrichment for antigen-specific phages was assessed after each round of panning by comparing the number of phagemid particles eluted from antigen-coated wells with the number of phagemid particles eluted from negative control (uncoated blocked) wells. […] There was no enrichment after the 1st panning round. In total, 190 colonies from panning round 2 were randomly selected and analyzed by ELISA for the presence of antigen-specific VHHs in their periplasmic extracts (ELISA using crude periplasmic extracts including soluble VHHs) (see FIG. 5). The antigens used for panning and ELISA screening were the same as the ones used for immunization, using uncoated blocked wells as negative control. […] Based on sequence data of the positive colonies, 27 different full length VHHs were distinguished (see FIGS. 4A, 4B, and 5 and SEQ ID Nos: 300-326).
For orientation: An ELISA detects its analyte on a solid surface through an enzyme-linked reagent.

T1 sequence (P78324 31-504): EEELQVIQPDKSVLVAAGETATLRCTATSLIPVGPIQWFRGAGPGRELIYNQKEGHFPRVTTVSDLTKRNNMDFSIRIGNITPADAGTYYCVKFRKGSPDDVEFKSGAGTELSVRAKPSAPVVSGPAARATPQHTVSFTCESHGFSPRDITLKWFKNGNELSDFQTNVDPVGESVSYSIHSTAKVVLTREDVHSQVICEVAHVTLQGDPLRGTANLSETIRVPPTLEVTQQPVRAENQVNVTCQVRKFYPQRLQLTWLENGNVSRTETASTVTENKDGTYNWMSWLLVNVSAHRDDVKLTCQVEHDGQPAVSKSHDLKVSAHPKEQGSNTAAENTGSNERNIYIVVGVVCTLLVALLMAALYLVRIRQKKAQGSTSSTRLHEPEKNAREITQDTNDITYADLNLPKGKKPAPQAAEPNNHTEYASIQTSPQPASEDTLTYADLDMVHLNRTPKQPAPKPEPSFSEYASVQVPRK

B1: 2HSI22 (VHH)
VHH: QVQLQESGGGLVQPGGSLRLSCAASGLNFRRYTMGWFRQAPGKEREFVGVINWSDDSIYYADSVKGRFAISRDNTKNTVYLQMASLKPEDTAVYYCAASPQWDTRVRQTMRGKYDYWGQGTQVTVSS
notes: The entry includes the C-terminal AAA linker, HA tag and His6 tag, as expressed from pMECS
Regarding B1, the binding result in test [1] and in test [2] was “binds” throughout.

Source of the values: patent publication US20240368277A1 (ORIONIS BIOSCIENCES, published 2024).
